Laboratory results: US20190135908A1 (Novartis, published 2019)
Numbering of substitutions follows the chain as printed. One block for each binder: values may come before it.

Assays:
[1] = target: T1, GDF15 mutant Q247R (wrist region), albumin fusion (human, UniProt Q99988 195-308); assay: direct ELISA on coated albumin-fusion GDF15 variant
T1 construct: not shown: albumin fusion partner
T1 chain: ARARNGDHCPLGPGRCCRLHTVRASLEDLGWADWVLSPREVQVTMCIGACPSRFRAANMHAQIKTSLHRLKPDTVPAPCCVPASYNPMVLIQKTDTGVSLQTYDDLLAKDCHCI
Description: (§1) Antibody epitope was determined by a direct ELISA method with GDF15 mutants. Albumin fusion GDF15 mutants were coated in wells of a 96-well EIA plate. After blocking, serially diluted anti-hGDF15 human antibodies were added to the GDF15-coated wells, followed by incubation at an ambient temperature for a few hours. Antibody binding was detected using an anti-human IgG antibody conjugated with horseradish peroxidase (HRP) and HRP substrate.

[2] = target: T2, GDF15 mutant M253R (wrist region), albumin fusion (human, UniProt Q99988 195-308); assay: as above
T2 construct: not shown: albumin fusion partner
T2 chain: T1 chain with R53Q, M59R
Description: as §1

[3] = target: T3, Cyno His-GDF15: HIS-tagged cyno GDF15 (cynomolgus, UniProt G7PWZ3 197-308, limits assumed); assay: Biacore SPR, IgG captured via anti-human Fc, GDF15 in flow
T3 construct: not shown: His tag
T3 sequence (looked up): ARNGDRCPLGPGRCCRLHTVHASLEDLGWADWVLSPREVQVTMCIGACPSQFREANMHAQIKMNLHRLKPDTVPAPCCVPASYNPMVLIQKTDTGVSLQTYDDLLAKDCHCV
Description: (§2) Biacore assay is based on surface plasmon resonance (SPR) and were used to determine the binding affinity of antibodies to GDF15.
(§3) Anti-human Fc capture antibody was immobilized at 0.5 μg/ml on CMS chip in all four flow cells to achieve 8000 to 12,000 resonance units (RU) on the surface. Anti-hGDF15 antibodies were captured at flow rate […], at 0.25 to 0.5 μg/ml on the chip to get about 30 RU in flow cells 2, 3 and 4. GDF15 ligand was flowed at […] over captured antibodies and reference flow cell 1 for 600 and 1200 seconds contact time. Eight doses serially diluted 1 to 2, ranging from 20 to 0.156 nM, were tested. All cycles were repeated twice, regenerated between cycles with 3M MgCl₂ at flow […], 20 seconds contact time. Data were normalized by subtracting reference flow cell results. Data were fit with 1:1 Kinetics model with RI (bulk refractive index) set constant at 0.

[4] = target: T4, Mouse His-GDF15: HIS-tagged mouse GDF15 (mouse, UniProt Q9Z0J7 189-303); assay: as above
T4 construct: not shown: His tag
T4 sequence (looked up): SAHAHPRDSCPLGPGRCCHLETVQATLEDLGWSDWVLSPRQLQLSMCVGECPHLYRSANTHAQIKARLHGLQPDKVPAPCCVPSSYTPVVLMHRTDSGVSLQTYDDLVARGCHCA
Description: as §2, §3

[5] = target: T5, Rat GDF15 HIS: HIS-tagged rat GDF15 (rat, UniProt Q9Z0J6 189-303, limits assumed); assay: as above
T5 construct: also called Rat His-GDF15; not shown: His tag
T5 sequence (looked up): T4 sequence (looked up) with A4L, Q63L, K75R, R110Q
Description: as §2, §3

binding result [1]: binds
binding result [2]: binds
Kd [3]: 14.1 pM
koff [3]: 0.000236 s⁻¹
kon [3]: 1.67e+07 M⁻¹ s⁻¹
Kd [4]: 45.7 pM
koff [4]: 0.000509 s⁻¹
kon [4]: 1.11e+07 M⁻¹ s⁻¹
Kd [5]: 28.1 pM
koff [5]: 0.000456 s⁻¹
kon [5]: 1.62e+07 M⁻¹ s⁻¹
B1: ABGDF15-D (antibody, human IgG1, lambda, V domains shown)
VH: EVQLVQSGAEVKKPGESLKISCKGSGYSFTSYWIGWVRQMPGKGLEWMGVIDPDGSYTIYSPSFQGQVTISADKSISTAYLQWSSLKASDTAMYYCARYGRYGTYFDYWGQGTLVTVSS
VL: QSVLTQPPSVSGAPGQRVTISCSGSSSNIGVLYVNWYQQLPGTAPKLLIYSNDNRPSGVPDRFSGSKSGTSASLAITGLQAEDEADYYCQSWDSSSNYVFGGGTKLTVLG
notes: captured through anti-human Fc in the Biacore assay

binding result [1]: binds
binding result [2]: binds
Kd [3]: 30.3 pM
koff [3]: 0.00038 s⁻¹
kon [3]: 1.26e+07 M⁻¹ s⁻¹
Kd [4]: 79 pM
koff [4]: 0.000535 s⁻¹
kon [4]: 6.78e+06 M⁻¹ s⁻¹
Kd [5]: 39.6 pM
koff [5]: 0.000428 s⁻¹
kon [5]: 1.08e+07 M⁻¹ s⁻¹
B2: ABGDF15-E (antibody, human IgG1, lambda, V domains shown)
VH: B1 VH with D54G
VL: B1 VL
notes: as for B1
